Target: bacterially expressed GST-tagged eRF3 (UniProt P15170)
Test: not stated; unpublished data; bacterially expressed GST-tagged eRF3 with partner translated in rabbit reticulocyte lysate

Question: “rabbit reticulocyte-lysate-translated hUpf1 (from UniProt Q92900 1-1129) (natural protein)” was tested. Which Kd did it give?
Answer: The Kd was greater than 1000 nM.

Question: With “rabbit reticulocyte-lysate-translated PABPC1 (from UniProt P11940 1-636) (natural protein)” as the substance, how does the Kd read?
Answer: The Kd was 5 nM.

Source: paper PMC2689706
